{"source": "the RNAGym collection of RNA variant scans (doi:10.1073/pnas.2313332121)", "parents": {"B1": {"name": "TPR 5TU (parent)", "chain": "GGAUCUUCUCGAUCUAACAAAAAAGACAAAUCUGCCACAAAGCUUGAGAGCAUCUUCGGAUGCAGAGGCGGCAGCCUUCGGUGGCGCGAUAGCGCCAACGUUCUCAACUAUGACACGCAAAACGCGUGCUCCGUUGAAUGGAGUUUAUCAUG"}}, "note": "Variants at the floor of the assay were thinned out.", "data": [{"variants_of": "B1", "assay": "polymerase ribozyme fitness, log enrichment relative to wild type (log ratio); higher = more active; in vitro selection for triplet polymerase activity", "summary_of_the_method": "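Fitness compares each genotype's enrichment to that of the wild type on a logarithmic scale, averaging replicates with inverse-variance weights. The logarithm is base 2. Enrichment came from Illumina sequencing of input and output libraries after one triplicate round of in vitro selection, which included frozen incubation at −7 °C, of PCR-built, transcribed mutant libraries of each subunit of a heterodimeric triplet polymerase ribozyme. Only genotypes with ≥10 input reads and ≥1 read per output were kept.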", "values": [{"variant": "C14G U82A U101G", "polymerase ribozyme fitness (log ratio)": -2.29}, {"variant": "U13G A21U C57U G68A A73U G92C C103A", "polymerase ribozyme fitness (log ratio)": "≤ -4.2"}, {"variant": "U13A A23U G59A C87U", "polymerase ribozyme fitness (log ratio)": "≤ -4.2"}, {"variant": "U13G C85U A106G G126U G140C", "polymerase ribozyme fitness (log ratio)": -3.96}, {"variant": "U13G C75G", "polymerase ribozyme fitness (log ratio)": "≤ -4.2"}, {"variant": "C14A U15A G50U A66G U101G C114U C118G G133A A137G", "polymerase ribozyme fitness (log ratio)": "≤ -4.2"}, {"variant": "C14G C36U U55G G68U C93G U134A", "polymerase ribozyme fitness (log ratio)": "≤ -4.2"}, {"variant": "C14G C85G C103A", "polymerase ribozyme fitness (log ratio)": "≤ -4.2"}, {"variant": "U13C A66U G88A A91U", "polymerase ribozyme fitness (log ratio)": "≤ -4.2"}, {"variant": "C14G U55A G92U", "polymerase ribozyme fitness (log ratio)": -2.92}, {"variant": "A12U A47G C76A C85G", "polymerase ribozyme fitness (log ratio)": -3.78}, {"variant": "U13G C14U A16G G59A U90G", "polymerase ribozyme fitness (log ratio)": -4.01}, {"variant": "C14A C87A A97U G143A", "polymerase ribozyme fitness (log ratio)": "≤ -4.2"}, {"variant": "U13A A23G C27U A28C C54U C85U C93U A115C C116G A121G A150C", "polymerase ribozyme fitness (log ratio)": -3.82}, {"variant": "U13G C36U A52G U55G C69U C76G G83C C114U C149A", "polymerase ribozyme fitness (log ratio)": "≤ -4.2"}, {"variant": "C14G C38A A52C C57A G62A G83A A89C C96G A110C", "polymerase ribozyme fitness (log ratio)": -3.85}, {"variant": "U13C A49C C93A", "polymerase ribozyme fitness (log ratio)": "≤ -4.2"}, {"variant": "C14G U15A C54U C69A C99A U148A", "polymerase ribozyme fitness (log ratio)": "≤ -4.2"}, {"variant": "C14G G141A", "polymerase ribozyme fitness (log ratio)": -1.87}, {"variant": "C14U A23C U101C U102A U151G", "polymerase ribozyme fitness (log ratio)": "≤ -4.2"}, {"variant": "C14U A21G C38G C57A C79U A138C U148C", "polymerase ribozyme fitness (log ratio)": "≤ -4.2"}, {"variant": "A12U A122U A147C", "polymerase ribozyme fitness (log ratio)": -0.484}, {"variant": "U13G U44A G124C U144G", "polymerase ribozyme fitness (log ratio)": "≤ -4.2"}, {"variant": "C14G C57U", "polymerase ribozyme fitness (log ratio)": -2.06}, {"variant": "C14G C57A", "polymerase ribozyme fitness (log ratio)": -1.52}, {"variant": "U13A U45A G84A", "polymerase ribozyme fitness (log ratio)": "≤ -4.2"}, {"variant": "A12U C18G C32A G84A C105U U127G", "polymerase ribozyme fitness (log ratio)": "≤ -4.2"}, {"variant": "C14U A20C A39G A52G U56A C96A A121U", "polymerase ribozyme fitness (log ratio)": -4}, {"variant": "A12U C32G G100A C129A U144G", "polymerase ribozyme fitness (log ratio)": "≤ -4.2"}, {"variant": "C14G A47C C54G U56A C93A C108U G124U G128A", "polymerase ribozyme fitness (log ratio)": "≤ -4.2"}, {"variant": "C14G C38U C95G A106C", "polymerase ribozyme fitness (log ratio)": -4.14}, {"variant": "U13G A21U C96U G133C A147C", "polymerase ribozyme fitness (log ratio)": -4.05}, {"variant": "C14G A107G G136U", "polymerase ribozyme fitness (log ratio)": "≤ -4.2"}, {"variant": "C14G C36A A52G A66C C93U C125A", "polymerase ribozyme fitness (log ratio)": "≤ -4.2"}, {"variant": "A12G U53A", "polymerase ribozyme fitness (log ratio)": -0.69}, {"variant": "C14A A17C C93U C116G", "polymerase ribozyme fitness (log ratio)": -2.99}, {"variant": "U13G G59U C96U", "polymerase ribozyme fitness (log ratio)": -0.998}, {"variant": "C14A G94A", "polymerase ribozyme fitness (log ratio)": -1.67}, {"variant": "A12U A47G C118G", "polymerase ribozyme fitness (log ratio)": -1.11}, {"variant": "U13G A30C C85A", "polymerase ribozyme fitness (log ratio)": "≤ -4.2"}, {"variant": "U13C C36A C85G C99A A138C", "polymerase ribozyme fitness (log ratio)": "≤ -4.2"}, {"variant": "U13A A39U U45A G59C C72U G94C U101A A142C", "polymerase ribozyme fitness (log ratio)": "≤ -4.2"}, {"variant": "U13G A21C C27A U55A C99A C103G", "polymerase ribozyme fitness (log ratio)": "≤ -4.2"}, {"variant": "A12G U53A U56A U82G A91U G117C A142G", "polymerase ribozyme fitness (log ratio)": -4.16}, {"variant": "A12U A147U", "polymerase ribozyme fitness (log ratio)": 0.945}, {"variant": "C14U A21C G67U U77A C85G C96U U127G", "polymerase ribozyme fitness (log ratio)": "≤ -4.2"}, {"variant": "C14G A29G U33C A37U U111G G124U U134A", "polymerase ribozyme fitness (log ratio)": "≤ -4.2"}, {"variant": "U13C C57A G58A A66G U82G C116U", "polymerase ribozyme fitness (log ratio)": "≤ -4.2"}, {"variant": "C14G A24C C35U C57A G84U A97U", "polymerase ribozyme fitness (log ratio)": "≤ -4.2"}, {"variant": "C14G A66U C69A", "polymerase ribozyme fitness (log ratio)": "≤ -4.2"}, {"variant": "C14G A30C G50A C76U C87A A107G U111C A120U", "polymerase ribozyme fitness (log ratio)": "≤ -4.2"}, {"variant": "C14A G68U C76A C99U G100A", "polymerase ribozyme fitness (log ratio)": "≤ -4.2"}, {"variant": "A12U A39U A73U G80A C93A G141U", "polymerase ribozyme fitness (log ratio)": "≤ -4.2"}, {"variant": "C14A A73G G86A A98U", "polymerase ribozyme fitness (log ratio)": -3.58}, {"variant": "U13A C35U C57U", "polymerase ribozyme fitness (log ratio)": -1.42}, {"variant": "U13G C87G", "polymerase ribozyme fitness (log ratio)": "≤ -4.2"}, {"variant": "C14G G83A", "polymerase ribozyme fitness (log ratio)": -2.42}, {"variant": "C14G G88U U102A", "polymerase ribozyme fitness (log ratio)": "≤ -4.2"}, {"variant": "A12U U15G A39U G86U U102G C116U", "polymerase ribozyme fitness (log ratio)": "≤ -4.2"}, {"variant": "C14G A20C C38U A147U", "polymerase ribozyme fitness (log ratio)": -2.09}, {"variant": "C14A G34A A40C U55G C87G C114G G117U A121C U139A", "polymerase ribozyme fitness (log ratio)": "≤ -4.2"}, {"variant": "C14G A23U C54G G67U A142U U151A", "polymerase ribozyme fitness (log ratio)": "≤ -4.2"}, {"variant": "C14G A29G A60G G94C C99U C114U", "polymerase ribozyme fitness (log ratio)": "≤ -4.2"}, {"variant": "U13A C54G G68A C75G C76G U90G C95G A119U", "polymerase ribozyme fitness (log ratio)": "≤ -4.2"}, {"variant": "U13C", "polymerase ribozyme fitness (log ratio)": -0.269}, {"variant": "U13A", "polymerase ribozyme fitness (log ratio)": -0.225}, {"variant": "U13G", "polymerase ribozyme fitness (log ratio)": -0.261}, {"variant": "C14G C75U", "polymerase ribozyme fitness (log ratio)": -2.58}, {"variant": "A12U A21U C87G C99U C125U", "polymerase ribozyme fitness (log ratio)": "≤ -4.2"}, {"variant": "U13C A16U G84A U109G", "polymerase ribozyme fitness (log ratio)": -1.88}, {"variant": "U13G A22G A24U A28G C76U U78A C79G G81A U102G C114A", "polymerase ribozyme fitness (log ratio)": "≤ -4.2"}, {"variant": "A12U C27G C36U C131U", "polymerase ribozyme fitness (log ratio)": "≤ -4.2"}, {"variant": "C14A A40G C43G G86U U135C G143C U148G", "polymerase ribozyme fitness (log ratio)": "≤ -4.2"}, {"variant": "A12U A91U A120G U146A", "polymerase ribozyme fitness (log ratio)": -4.18}, {"variant": "U13C A26U A52C U55A G88A A89C C99U U135G A142U", "polymerase ribozyme fitness (log ratio)": "≤ -4.2"}, {"variant": "A12U U33A C35G C57A U77C U101C U134A", "polymerase ribozyme fitness (log ratio)": "≤ -4.2"}, {"variant": "C14A G59A U82A G84U", "polymerase ribozyme fitness (log ratio)": -4.06}, {"variant": "A12U A47C A52C U56G A64C G86A A89G C99U", "polymerase ribozyme fitness (log ratio)": "≤ -4.2"}, {"variant": "A12U U55A C57G C103A G128U A147C", "polymerase ribozyme fitness (log ratio)": -4.11}, {"variant": "A12U G58A C85G A106G A137U A150C", "polymerase ribozyme fitness (log ratio)": "≤ -4.2"}, {"variant": "A12U C14G", "polymerase ribozyme fitness (log ratio)": -2.05}, {"variant": "C14A G50A C85G C96A", "polymerase ribozyme fitness (log ratio)": "≤ -4.2"}, {"variant": "C14A C76G C87A A119G A138C U148A", "polymerase ribozyme fitness (log ratio)": "≤ -4.2"}]}]}
